Measurements reported in article PMC7603008 (Materials, 2020).

Experiments:
[1] = system: shallow cavities in beagle dog premolars; assay: Shallow cavity tooth defect model in beagle dog premolars; type: in vivo
Source text: (§1) For in vivo canine studies, a total of 10 beagle dogs (2 y) were operated on, with all of them reaching end points. For each animal, 4 to 6 maxillary premolars and 6 mandibular premolars were used, depending on their periodontal conditions. Control and experimental groups were allocated to each and every animal so that possible biases resulting from individual nutritional, behavioral, and pulpal conditions could be eliminated. Compared to small animal studies, the sample size was necessarily limited for feasibility and ethical reasons. While the exact numbers for each experiment are included in the figure legends, at least 6 premolars and up to 12 premolars were assigned to every control and experimental group. Investigators performing beagle operation and sampling were not blinded, while investigators involved in histological analysis were blinded. All experiments using animals followed protocols approved by the Institutional Animal Care and Use Committee of Seoul National University (SNU-180416-2-1 and SNU-171020-5-2).
(§2) Beagle dogs of 1–2 years of age were used for three independent experiments. After disinfecting the cervical regions of the maxillary and mandibular premolars with 0.5% chlorhexidine, dish-shaped class V cavities were prepared using a #4 high-speed round bur (head diameter, 1.4 mm). […]

[2] = system: dental pulp cells under deep cavities; assay: TUNEL assay of dental pulp at deep cavity preparation areas; type: in vivo, beagle dog; conditions: 3 weeks, versus GI cement only control
Experimental: Apoptotic cells were detected using the TUNEL kit (Roche Biochemicals, Basel, Switzerland), according to the manufacturer’s instructions. Endogenous peroxidase activity within the tissue sections were blocked in 3% H2O2 prior to enzymatic labeling. To yield a colored reaction product, enzymatically labeled cells were then incubated with 3,3-diaminobenzidine tetrahydrochloride. Visualization was achieved by incubating the sections with diaminobenzidine tetrahydrochloride (DAB), and subsequent counter-staining with hematoxylin. Positive TUNEL signals were converted to red color using IHC Profiler of Image J software (National Institute of Health, Gaithersburg, MD, USA).

[3] = system: cavities in beagle dog premolars; assay: Characterisation of CPNE7-induced hard tissue (SEM, Masson's trichrome, alternative filling materials); type: in vivo
Experimental: Beagle dogs of 1–2 years of age were used for three independent experiments. After disinfecting the cervical regions of the maxillary and mandibular premolars with 0.5% chlorhexidine, dish-shaped class V cavities were prepared using a #4 high-speed round bur (head diameter, 1.4 mm). For shallow cavities, the drilling stopped when half to two-thirds of the bur head penetrated the tooth structure, depending on the tooth size. For deep cavities, the drilling stopped when the color of the remaining dentin looked reddish gray. The smear layer was removed with a gentle application of 17% EDTA. After sufficient irrigation, surgical sites were dried with a cotton pellet. For CPNE7 function analysis, the cavities were either untreated or treated with a topical application of rCPNE7 (recombinant CPNE7) protein (1 µg total rCPNE7 per tooth in a buffer containing 25 mM Tris-HCl, 100 mM glycine, and 10% glycerol). After a brief incubation for diffusion, the cavities were then filled with either glass ionomer (GI) cement (GC; Fuji II LC; GC America Inc., Alsip, IL, USA), composite resin (Filtek Supreme Ultra Flowable Restorative; 3 M, MN, USA) or intermediate restorative material (IRM; Dentsply Sirona, New York, PA, USA). For peptide function analysis, an HIV-1 Tat-derived cell-penetrating peptide was used as control. In addition to the abovementioned shallow and deep cavity models, complete pulp exposure was performed for peptide analysis. For complete pulp exposure, the drilling stopped when a pin-point exposure of the pulp was generated and bleeding was evident. Cotton pellets soaked in saline were used for bleeding control. Cavities with exposed pulps were divided into two groups for the experiment. Group 1 received only GI cement filling, group 2 received GI cement filling after MTA (ProRoot MTA; Dentsply Sirona, New York, PA, USA) sealing, and group 3 received GI cement filling after MTA mixed with CPNE7-derived peptide (Cpne7-DP) sealing. […]

[4] = system: deep cavities in beagle dog premolars; assay: Deep cavity tooth defect model in beagle dog premolars; type: in vivo
Source text: as §1, §2

[5] = beagle dog premolars, topical application, then cavity filling, H&E histology after 3 weeks
[6] = six weeks instead of three, H&E, n = 6

B1: rCPNE7: recombinant CPNE7 protein, a dental epithelium-derived calcium-dependent phospholipid-binding protein (Origene) (protein, UniProt Q9UBL6 1-633, looked up)
Copine-7: MSAGSERGAAATPGGLPAPCASKVELRLSCRHLLDRDPLTKSDPSVALLQQAQGQWVQVGRTEVVRSSLHPVFSKVFTVDYYFEEVQRLRFEVYDTHGPSGFSCQEDDFLGGMECTLGQPAQKWLLQVVMRVSVDVLGPAGHCAKHFLCCTESSHLARTGPSFLLRYDDLCLPWATAGAVRWWTCRGGHTQGWQIVAQKKVTRPLLLKFGRNAGKSTITVIAEDISGNNGYVELSFRARKLDDKDLFSKSDPFLELYRVNDDQGLQLVYRTEVVKNNLNPVWEAFKVSLSSLCSCEETRPLKCLVWDYDSRGKHDFIGEFSTTFEEMQKAFEEGQAQWDCVNPKYKQKRRSYKNSGVVVLADLKFHRVYSFLDYIMGGCQIHFTVAIDFTASNGDPRNSCSLHYINPYQPNEYLKALVSVGEICQDYDSDKRFSALGFGARIPPKYEVSHDFAINFNPEDDECEGIQGVVEAYQNCLPRVQLYGPTNVAPIISKVARVAAAEESTGKASQYYILLILTDGVVTDMADTREAIVRASRLPMSIIIVGVGNADFTDMQVLDGDDGVLRSPRGEPALRDIVQFVPFRELKNASPAALAKCVLAEVPKQVVEYYSHRGLPPRSLGVPAGEASPGCTP
Question: With B1 as the molecule, how does the “New hard tissue formation beneath shallow cavity” value [1, 5] read?
Answer: Its value is “newly generated tertiary dentin retaining the physiologic tubule structure”.

Question: And the “Thickness of newly formed tubular dentin, shallow cavity” value [1, 6]?
Answer: The value was “increased significantly”.

Question: And the “Cell death under the newly generated dentin (TUNEL)” value [2]?
Answer: The value was “significantly reduced cell death”.

Question: And the “Collagen content of newly generated dentin area” value ([3]; Masson's trichrome staining)?
Answer: Its value is “higher collagen content”.

Question: And the “Hard tissue formation with alternative cavity filling material” value ([3]; composite resin or zinc oxide-eugenol (ZOE) filling, H&E after six weeks, n = 6)?
Answer: Its value is “formation of tubular dentin”.

Question: What about the “Presence of dentinal tubules in the newly mineralized area” value ([3]; scanning electron microscopy, along the entire length of predentin) of the same molecule?
Answer: Its value is “clear tubule structure”.

Question: And the “New hard tissue formation beneath deep cavity” value [4, 5]?
Answer: Its value is “newly generated tertiary dentin was present beneath the remaining dentin”.

Question: And the “Thickness of newly formed tubular dentin, deep cavity” value [4, 6]?
Answer: The value was “increased significantly”.
